Test results as given in article PMC9016069, “Inosine triphosphate pyrophosphatase from Trypanosoma brucei cleanses cytosolic pools from deaminated nucleotides” (Scientific Reports, 2022).

Assays:
Experiment in all cases: HPLC (MonoQ) product analysis, fit to substrate inhibition model
TbITPA = target: T1, TbITPA (Trypanosoma brucei, UniProt Q389X7); type: biochemical; conditions: substrate inhibition constant; 5 mM MgCl2, 20 mM Tris-HCl pH 7.5, 0.1 mg/mL BSA, 1 mM DTT, 25 °C
T1 construct: gene Tb10.6k15.0290; homodimer 48 kDa by gel filtration
T1 sequence (Q389X7 87-287): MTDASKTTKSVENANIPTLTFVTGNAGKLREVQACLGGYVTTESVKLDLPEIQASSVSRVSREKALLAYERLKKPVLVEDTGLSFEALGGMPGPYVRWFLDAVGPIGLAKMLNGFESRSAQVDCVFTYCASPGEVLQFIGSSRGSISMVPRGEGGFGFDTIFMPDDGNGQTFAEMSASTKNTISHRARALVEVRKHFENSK
Text: HPLC (MonoQ) product analysis, fit to substrate inhibition model on TbITPA

[1] = substrate: O=c1[nH]cnc2c1ncn2[C@H]1C[C@H](O)[C@@H](COP(=O)(O)OP(=O)(O)OP(=O)(O)O)O1; type: biochemical, Trypanosoma brucei; conditions: 5 mM MgCl2, 20 mM Tris-HCl pH 7.5, 0.1 mg/mL BSA, 1 mM DTT, 25 °C
[2] = substrate: O=P(O)(O)OP(=O)(O)OP(=O)(O)OC[C@H]1O[C@@H](n2cnc3c(O)ncnc32)[C@H](O)[C@@H]1O; type: biochemical, Trypanosoma brucei; conditions: 5 mM MgCl2, 20 mM Tris-HCl pH 7.5, 0.1 mg/mL BSA, 1 mM DTT, 25 °C
[3] = substrate: NC(=O)c1ncn([C@@H]2O[C@H](CO[P@@](=O)(O)O[P@](=O)(O)OP(=O)(O)O)[C@@H](O)[C@H]2O)n1; type: biochemical, Trypanosoma brucei; conditions: 5 mM MgCl2, 20 mM Tris-HCl pH 7.5, 0.1 mg/mL BSA, 1 mM DTT, 25 °C
[4] = substrate: O=c1[nH]c(=O)c2ncn([C@@H]3O[C@H](COP(=O)(O)OP(=O)(O)OP(=O)(O)O)[C@@H](O)[C@H]3O)c2[nH]1; type: biochemical, Trypanosoma brucei; conditions: 5 mM MgCl2, 20 mM Tris-HCl pH 7.5, 0.1 mg/mL BSA, 1 mM DTT, 25 °C

O=c1[nH]cnc2c1ncn2[C@@H]1O[C@H](COP(=O)(O)OP(=O)(O)OP(=O)(O)O)[C@@H](O)[C@H]1O [ITP]
Ki (μM)^a (TbITPA): 824 ± 275 µM

O=c1[nH]c(=O)c2ncn([C@@H]3O[C@H](COP(=O)(O)OP(=O)(O)OP(=O)(O)O)[C@@H](O)[C@H]3O)c2[nH]1 [XTP]
Ki (μM)^a (TbITPA): 951 ± 220 µM

O=c1[nH]cnc2c1ncn2[C@H]1C[C@H](O)[C@@H](COP(=O)(O)OP(=O)(O)OP(=O)(O)O)O1 [dITP]
Ki (μM)^a (TbITPA): 98 ± 42 µM

B1: TbITPA (Trypanosoma brucei brucei TREU927) (protein)
chain: MTDASKTTKSVENANIPTLTFVTGNAGKLREVQACLGGYVTTESVKLDLPEIQASSVSRVSREKALLAYERLKKPVLVEDTGLSFEALGGMPGPYVRWFLDAVGPIGLAKMLNGFESRSAQVDCVFTYCASPGEVLQFIGSSRGSISMVPRGEGGFGFDTIFMPDDGNGQTFAEMSASTKNTISHRARALVEVRKHFENSK
notes: homodimer 48 kDa by gel filtration
Km [1]: 44 ± 18 µM | kcat [1]: 280 ± 74 s⁻¹ | kcat/Km [1]: 6.4e+06 M⁻¹ s⁻¹ | Km [2]: 17 ± 3 µM | kcat [2]: 59 ± 5 s⁻¹ | kcat/Km [2]: 3.5e+06 M⁻¹ s⁻¹ | Km [3]: 75 ± 24 µM | kcat [3]: 100 ± 14 s⁻¹ | Km [4]: 27 ± 4 µM | kcat [4]: 37 ± 2 s⁻¹ | kcat/Km [4]: 1.4e+06 M⁻¹ s⁻¹
